Test results: patent US12648985B2, “Immunotherapeutic for prostate cancer treatment” (Hexamer Therapeutics, Inc., priority 2019, dated 2026)
“Also recorded” adds a separate entry of the source.

Experiments:
GnRH = assay: anti-GnRH IgG endpoint titers by ELISA in sera of immunized mice; format: in vivo; conditions: BALB/cJ mice
Experimental: B-cell function: Standard ELISA was used to measure therapeutic efficacy by GnRH-specific antibody titer in the collected mouse sera. ELISA plates were coated with GnRH-BSA conjugate and 8 sequential 10-fold dilutions (from 1:10^3 to 1:10^10) of sera in blocking buffer were made and added to the ELISA plate wells. An HRP-labeled anti-mouse secondary antibody was added and the plates developed with a colorimetric substrate and measured in an ELISA plate reader. Data were plotted, curve fitted, and statistically analyzed using Prism Graph Pad software for calculating mid- and end-point titers.
(§1) Constructs 1-7 (1 and 10 ug) were adjuvanted with a monophosphoryl lipid-A/squalene-based adjuvant and injected into BALB/cJ mice. Each construct is injected into 5 mice (n=5 per construct). After 14, 28, and 42 days, mouse sera were obtained to measure anti-GnRH IgG endpoint titers by ELISA using dilutions from […] (sequential 10-fold dilutions). […] Testosterone was extracted from the sera, derivatized, and separated and quantified by LC-MS/MS.
The solid line in the group of dots is the geometric mean and the error bars are the geometric standard deviation. Two doses were chosen for this study: 1 and 10 ug. IgG titers reached maximum levels 42 days following prime immunization.

testosterone = assay: serum testosterone by LC-MS/MS in immunized mice; format: in vivo; conditions: BALB/cJ mice
Experimental: as §1
A castrate T level is shown by the dotted line.

Molecule	anti-GnRH IgG antibody titers, 1 ug versus 10 ug dose (GnRH; 1 and 10 ug, monophosphoryl lipid-A/squalene-based adjuvant, FIG. 3)	anti-GnRH IgG antibody titers, rank among the constructs (GnRH; FIG. 3, listed as TCE3-Hex-TCE4+GnRH)	inducing IgG titers compared with KLH+GnRH (positive control) (GnRH; FIGS. 4-6)	anti-GnRH IgG titers, d28 versus d42 (GnRH; days post-prime immunization, FIG. 3)	inducing castrate levels of T compared with KLH+GnRH (positive control) (testosterone; FIGS. 4-6)	testosterone (T) levels induced (testosterone; by d42, FIG. 6)	anti-GnRH IgG antibody titers, rank among the constructs (GnRH; FIG. 3)
construct 2: GnRH peptide immunogen (SEQ ID NO: 70) conjugated to the TCE3-Hex-TCE4 hexamer scaffold peptide (SEQ ID NO: 68) (conjugate, conjugated; GnRH; TCE3_Hex_TCE4) chain 1: QHWSYGLRPGDGEGC chain 2: GQEAFSHIRIPLPHDIRSIGKEIRSIGREIRSIGKEIRSIGREFQDAYNAAGGHNAVF	equal antibody titers at both 1 and 10 ug	highest antibody titers; also recorded: highest titers or induced high titers sooner	about the same as KLH+GnRH	almost equal levels between d28 and d42	about the same as KLH+GnRH	castrate levels of T	–
construct 5: scaffold peptide (SEQ ID NO: 67): GnRH peptide and TCE2 at N- and C-terminus of the monomeric peptide, self-assembled (also: self-assembled) GQHWSYGLRPGGDIRSIGKEIRSIGREIKSIGREIRSIGRGPGPFNNFTVSFWLRVPRVSASHLEQY	–	–	–	–	–	–	highest titers or induced high titers sooner
